US20250215412A1 (NOVOZYMES A S, published 2025)
Where a chain is given by its changes, count along the chain named. Numbers in names are those of the source.

What was measured:
Experiment in all cases: cell-based or functional assay
[1] = target: Chryseobacterium culicis deamidase polypeptide, wildtype, with His-tag (Chryseobacterium culicis)
[2] = target: T1, Chryseobacterium defluvii deamidase polypeptide, wildtype, with His-tag (Chryseobacterium defluvii)
T1 sequence: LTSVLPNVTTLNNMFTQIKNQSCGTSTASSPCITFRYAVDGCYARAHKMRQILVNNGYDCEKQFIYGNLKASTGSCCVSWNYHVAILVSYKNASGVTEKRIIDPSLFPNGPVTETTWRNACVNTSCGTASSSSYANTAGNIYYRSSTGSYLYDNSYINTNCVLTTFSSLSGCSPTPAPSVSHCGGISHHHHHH

[3] = target: T2, Chryseobacterium gambrini deamidase polypeptide, wildtype, with His-tag (Chryseobacterium gambrini)
T2 sequence: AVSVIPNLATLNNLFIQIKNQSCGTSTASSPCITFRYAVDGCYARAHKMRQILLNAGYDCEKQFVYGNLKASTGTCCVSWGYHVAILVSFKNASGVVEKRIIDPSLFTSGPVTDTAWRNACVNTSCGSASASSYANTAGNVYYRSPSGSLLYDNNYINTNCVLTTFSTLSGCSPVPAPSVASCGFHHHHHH

[4] = target: T3, Chryseobacterium sp-62563 deamidase polypeptide (second polypeptide, deamidase domain), wildtype (Chryseobacterium sp-62563)
T3 sequence: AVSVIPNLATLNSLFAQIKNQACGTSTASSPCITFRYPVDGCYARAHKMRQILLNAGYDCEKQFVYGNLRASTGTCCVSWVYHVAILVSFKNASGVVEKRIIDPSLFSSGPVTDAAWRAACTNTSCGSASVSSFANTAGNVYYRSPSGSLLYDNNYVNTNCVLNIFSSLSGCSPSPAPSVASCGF

Molecule: Chryseobacterium culicis propeptide F99K + N100T + E103V + R104K + G105E + D106E + S107N + K108R
- Leakage activity [1]: 3%

B1: Chryseobacterium defluvii propeptide Y47T (protein)
chain: ATNQDVVGKENTSNHVAARDFGKTVPVGINEENGTLKVSFILSAQFTEIKPSKENEEYISLIRQAIQNESPIHVFMKLNSNEIVKVEKGTEEDVKYFRSILTKEVKEENRK
- NanoDSF thermal unfolding temperature [2]: 80.4 ° C.

B2: Chryseobacterium defluvii propeptide L101K (protein)
chain: B1 chain with T47Y, L101K
- NanoDSF thermal unfolding temperature [2]: 80.5 ° C.

B3: Chryseobacterium defluvii propeptide L101G (protein)
chain: B1 chain with T47Y, L101G
- NanoDSF thermal unfolding temperature [2]: 79.8 ° C.

B4: Chryseobacterium defluvii propeptide L101A (protein)
chain: B1 chain with T47Y, L101A
- NanoDSF thermal unfolding temperature [2]: 82 ° C.

B5: Chryseobacterium gambrini propeptide I23S (protein)
chain: NQDPNLVVKENNENAMRDFGSTSPVGIQKEGNVLKVSFIISAQFYEIKDSKENEAFISMIKSAIENETPVHVFLKKNSNEIAKVEKATDEDVTYFKSIFTKEVKEENRK
- NanoDSF thermal unfolding temperature [3]: 77.2 ° C.

B6: Chryseobacterium gambrini propeptide Y45T (protein)
chain: B5 chain with S23I, Y45T
- NanoDSF thermal unfolding temperature [3]: 79.3 ° C.

B7: Chryseobacterium gambrini propeptide F38C (protein)
chain: B5 chain with S23I, F38C
- NanoDSF thermal unfolding temperature [3]: 82.3 ° C.

B8: Chryseobacterium gambrini propeptide F99G (protein)
chain: B5 chain with S23I, F99G
- NanoDSF thermal unfolding temperature [3]: 69.3 ° C.

B9: Chryseobacterium gambrini propeptide F99K (protein)
chain: B5 chain with S23I, F99K
- NanoDSF thermal unfolding temperature [3]: 78.4 ° C.

B10: Chryseobacterium gambrini propeptide F99A (protein)
chain: B5 chain with S23I, F99A
- NanoDSF thermal unfolding temperature [3]: 70.4 ° C.

B11: Chryseobacterium gambrini propeptide Y94P (protein)
chain: B5 chain with S23I, Y94P
- NanoDSF thermal unfolding temperature [3]: 81.1 ° C.

B12: Chryseobacterium sp-62563 propeptide F38D (protein)
chain: NQDPNLVAKESNETAMKDFGKTVPVGIEKEDGKFKISDMVTAQPYEIKDSKENAAYISMIKTAVENETPIHVFLKANTNEIAKVDKATDDDIRYFKSVFTKEVKEENRK
- Relative activity of maturated deamidase (% initial rate) [4]: > 100

B13: Chryseobacterium sp-62563 propeptide K101G (protein)
chain: B12 chain with D38F, K101G
- Relative activity of maturated deamidase (% initial rate) [4]: 34

B14: Chryseobacterium sp-62563 propeptide K101C (protein)
chain: B12 chain with D38F, K101C
- Relative activity of maturated deamidase (% initial rate) [4]: 38

B15: Chryseobacterium sp-62563 propeptide D18G (protein)
chain: B12 chain with D18G, D38F
- Leakage activity [4]: 0%
- Relative activity of maturated deamidase (% initial rate) [4]: 62

B16: Chryseobacterium sp-62563 propeptide T14P (protein)
chain: B12 chain with T14P, D38F
- Leakage activity [4]: 0%

B17: Chryseobacterium sp-62563 propeptide K101W (protein)
chain: B12 chain with D38F, K101W
- Relative activity of maturated deamidase (% initial rate) [4]: 54

B18: Chryseobacterium sp-62563 propeptide F19P (protein)
chain: B12 chain with F19P, D38F
- Leakage activity [4]: 3%
- Relative activity of maturated deamidase (% initial rate) [4]: 71

B19: Chryseobacterium sp-62563 propeptide T100Q (protein)
chain: B12 chain with D38F, T100Q
- Relative activity of maturated deamidase (% initial rate) [4]: 79

B20: Chryseobacterium sp-62563 propeptide G20D (protein)
chain: B12 chain with G20D, D38F
- Leakage activity [4]: 0%

B21: Chryseobacterium sp-62563 propeptide E13C (protein)
chain: B12 chain with E13C, D38F
- Leakage activity [4]: 0%

B22: Chryseobacterium sp-62563 propeptide D18R (protein)
chain: B12 chain with D18R, D38F
- Leakage activity [4]: 0%
- Relative activity of maturated deamidase (% initial rate) [4]: 51

B23: Chryseobacterium sp-62563 propeptide K101P (protein)
chain: B12 chain with D38F, K101P
- Relative activity of maturated deamidase (% initial rate) [4]: 36

B24: Chryseobacterium sp-62563 propeptide D18P (protein)
chain: B12 chain with D18P, D38F
- Leakage activity [4]: 0%
- Relative activity of maturated deamidase (% initial rate) [4]: 66

B25: Chryseobacterium sp-62563 propeptide D18K (protein)
chain: B12 chain with D18K, D38F
- Leakage activity [4]: 5%
- Relative activity of maturated deamidase (% initial rate) [4]: 37

B26: Chryseobacterium sp-62563 propeptide K101D (protein)
chain: B12 chain with D38F, K101D
- Relative activity of maturated deamidase (% initial rate) [4]: 46

B27: Chryseobacterium sp-62563 propeptide K109G (protein)
chain: B12 chain with D38F, K109G
- Leakage activity [4]: 0%
- Relative activity of maturated deamidase (% initial rate) [4]: 29

B28: Chryseobacterium sp-62563 propeptide K109C (protein)
chain: B12 chain with D38F, K109C
- Leakage activity [4]: 0%

B29: Chryseobacterium sp-62563 propeptide K101E (protein)
chain: B12 chain with D38F, K101E
- Relative activity of maturated deamidase (% initial rate) [4]: 45

B30: Chryseobacterium sp-62563 propeptide V25C (protein)
chain: B12 chain with V25C, D38F
- Relative activity of maturated deamidase (% initial rate) [4]: 96

B31: Chryseobacterium sp-62563 propeptide K101A (protein)
chain: B12 chain with D38F, K101A
- Relative activity of maturated deamidase (% initial rate) [4]: 36

B32: Chryseobacterium sp-62563 propeptide V23Y (protein)
chain: B12 chain with V23Y, D38F
- Leakage activity [4]: 0%
- Relative activity of maturated deamidase (% initial rate) [4]: 56

B33: Chryseobacterium sp-62563 propeptide R108N (protein)
chain: B12 chain with D38F, R108N
- Leakage activity [4]: 0%

B34: Chryseobacterium sp-62563 propeptide N1C (protein)
chain: B12 chain with N1C, D38F
- Leakage activity [4]: 0%
- Relative activity of maturated deamidase (% initial rate) [4]: 27

B35: Chryseobacterium sp-62563 propeptide K101L (protein)
chain: B12 chain with D38F, K101L
- Relative activity of maturated deamidase (% initial rate) [4]: 41

B36: Chryseobacterium sp-62563 propeptide F19L (protein)
chain: B12 chain with F19L, D38F
- Relative activity of maturated deamidase (% initial rate) [4]: 33

B37: Chryseobacterium sp-62563 propeptide K101N (protein)
chain: B12 chain with D38F, K101N
- Relative activity of maturated deamidase (% initial rate) [4]: 29

B38: Chryseobacterium sp-62563 propeptide K101I (protein)
chain: B12 chain with D38F, K101I
- Relative activity of maturated deamidase (% initial rate) [4]: 38

B39: Chryseobacterium sp-62563 propeptide K101S (protein)
chain: B12 chain with D38F, K101S
- Relative activity of maturated deamidase (% initial rate) [4]: 29

B40: Chryseobacterium sp-62563 propeptide K101Y (protein)
chain: B12 chain with D38F, K101Y
- Relative activity of maturated deamidase (% initial rate) [4]: 46

B41: Chryseobacterium sp-62563 propeptide D18M (protein)
chain: B12 chain with D18M, D38F
- Leakage activity [4]: 0%
- Relative activity of maturated deamidase (% initial rate) [4]: 34

B42: Chryseobacterium sp-62563 propeptide K101M (protein)
chain: B12 chain with D38F, K101M
- Relative activity of maturated deamidase (% initial rate) [4]: 29

B43: Chryseobacterium sp-62563 propeptide T100E (protein)
chain: B12 chain with D38F, T100E
- Relative activity of maturated deamidase (% initial rate) [4]: 75

B44: Chryseobacterium sp-62563 propeptide E10P (protein)
chain: B12 chain with E10P, D38F
- Leakage activity [4]: 0%

B45: Chryseobacterium sp-62563 propeptide M16G (protein)
chain: B12 chain with M16G, D38F
- Leakage activity [4]: 0%
- Relative activity of maturated deamidase (% initial rate) [4]: 27

B46: Chryseobacterium sp-62563 propeptide E30W (protein)
chain: B12 chain with E30W, D38F
- Relative activity of maturated deamidase (% initial rate) [4]: 27

B47: Chryseobacterium sp-62563 propeptide K21G (protein)
chain: B12 chain with K21G, D38F
- Leakage activity [4]: 0%
- Relative activity of maturated deamidase (% initial rate) [4]: 53
